According to paper doi:10.1101/2025.07.31.667872 (bioRxiv, 2025):

How the values were obtained:
Conditions in all cases: both partners purified
[1] = target: T1, RPN13 Pru (1–150), reduced (UniProt Q16186 1-150); assay: ITC; RPN2 (940–953) in the syringe (156 μM), RPN13 Pru in the cell (15.6 μM); 25 °C, reducing buffer: 20 mM sodium phosphate, 50 mM NaCl, 10 mM βME, pH 6.0; one-site fit
T1 construct: Kept in reducing ITC buffer (10 mM βME); also called redu RPN13^Pru; RPN13 (1–150); source: E. coli BL21(DE3) pLysS, purified (Talon resin, PreScission elution, Superdex 75); not shown: His6, N-terminal, cleaved

[2] = target: T2, RPN13 Pru (1–150), oxidized (UniProt Q16186 1-150, oxidized with 0.05 % H2O2; the oxidized residues are not given); assay: ITC; RPN2 (940–953) in the syringe (205.7 or 160 μM), RPN13 Pru in the cell (20.57 or 16 μM); 25 °C, non-reducing buffer: 20 mM sodium phosphate, 50 mM NaCl, pH 6.0; one-site fit
T2 construct: RPN13 Pru domain, residues 1-150; also called oxi-RPN13^Pru; not shown: His6, N-terminal, cleaved

[3] = target: T3, oxi-RPN13^Pru following incubation with 3-fold molar excess TXNL1^Trx (UniProt Q16186 1-150, oxidized with 0.05 % H2O2, then treated with TXNL1 Trx); assay: as above
T3 construct: RPN13 Pru domain, residues 1-150; source: E. coli BL21(DE3) pLysS, purified; not shown: His6, N-terminal, cleaved
T3 sequence (Q16186 1-150): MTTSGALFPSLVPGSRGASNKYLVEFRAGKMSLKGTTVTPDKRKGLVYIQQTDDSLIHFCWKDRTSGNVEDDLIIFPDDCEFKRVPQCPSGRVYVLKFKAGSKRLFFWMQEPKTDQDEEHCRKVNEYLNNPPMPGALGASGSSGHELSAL

T2 sequence (Q16186 1-150): as above
T1 sequence (Q16186 1-150): as above

B1: RPN2 peptide (940–953) (peptide, UniProt Q99460 940-953, looked up)
chain: QEPEPPEPFEYIDD
notes: The construct has a PreScission site after GST, but the methods tell only of elution as the GST fusion; ITC and NMR speak of the RPN2 peptide; also called RPN2 (940–953); RPN2^940–953
Work on B1 yielded a Kd [1] of 12.4 ± 5.29 nM, a Kd [2] of 40 ± 15.3 nM and a Kd [3] of 18.9 ± 5.7 nM.
